In IntAct's records for PubMed 19098916:

Biological target: brr2_yeast BRR2 (UniProt P32639)
Sequence (P32639 whole entry): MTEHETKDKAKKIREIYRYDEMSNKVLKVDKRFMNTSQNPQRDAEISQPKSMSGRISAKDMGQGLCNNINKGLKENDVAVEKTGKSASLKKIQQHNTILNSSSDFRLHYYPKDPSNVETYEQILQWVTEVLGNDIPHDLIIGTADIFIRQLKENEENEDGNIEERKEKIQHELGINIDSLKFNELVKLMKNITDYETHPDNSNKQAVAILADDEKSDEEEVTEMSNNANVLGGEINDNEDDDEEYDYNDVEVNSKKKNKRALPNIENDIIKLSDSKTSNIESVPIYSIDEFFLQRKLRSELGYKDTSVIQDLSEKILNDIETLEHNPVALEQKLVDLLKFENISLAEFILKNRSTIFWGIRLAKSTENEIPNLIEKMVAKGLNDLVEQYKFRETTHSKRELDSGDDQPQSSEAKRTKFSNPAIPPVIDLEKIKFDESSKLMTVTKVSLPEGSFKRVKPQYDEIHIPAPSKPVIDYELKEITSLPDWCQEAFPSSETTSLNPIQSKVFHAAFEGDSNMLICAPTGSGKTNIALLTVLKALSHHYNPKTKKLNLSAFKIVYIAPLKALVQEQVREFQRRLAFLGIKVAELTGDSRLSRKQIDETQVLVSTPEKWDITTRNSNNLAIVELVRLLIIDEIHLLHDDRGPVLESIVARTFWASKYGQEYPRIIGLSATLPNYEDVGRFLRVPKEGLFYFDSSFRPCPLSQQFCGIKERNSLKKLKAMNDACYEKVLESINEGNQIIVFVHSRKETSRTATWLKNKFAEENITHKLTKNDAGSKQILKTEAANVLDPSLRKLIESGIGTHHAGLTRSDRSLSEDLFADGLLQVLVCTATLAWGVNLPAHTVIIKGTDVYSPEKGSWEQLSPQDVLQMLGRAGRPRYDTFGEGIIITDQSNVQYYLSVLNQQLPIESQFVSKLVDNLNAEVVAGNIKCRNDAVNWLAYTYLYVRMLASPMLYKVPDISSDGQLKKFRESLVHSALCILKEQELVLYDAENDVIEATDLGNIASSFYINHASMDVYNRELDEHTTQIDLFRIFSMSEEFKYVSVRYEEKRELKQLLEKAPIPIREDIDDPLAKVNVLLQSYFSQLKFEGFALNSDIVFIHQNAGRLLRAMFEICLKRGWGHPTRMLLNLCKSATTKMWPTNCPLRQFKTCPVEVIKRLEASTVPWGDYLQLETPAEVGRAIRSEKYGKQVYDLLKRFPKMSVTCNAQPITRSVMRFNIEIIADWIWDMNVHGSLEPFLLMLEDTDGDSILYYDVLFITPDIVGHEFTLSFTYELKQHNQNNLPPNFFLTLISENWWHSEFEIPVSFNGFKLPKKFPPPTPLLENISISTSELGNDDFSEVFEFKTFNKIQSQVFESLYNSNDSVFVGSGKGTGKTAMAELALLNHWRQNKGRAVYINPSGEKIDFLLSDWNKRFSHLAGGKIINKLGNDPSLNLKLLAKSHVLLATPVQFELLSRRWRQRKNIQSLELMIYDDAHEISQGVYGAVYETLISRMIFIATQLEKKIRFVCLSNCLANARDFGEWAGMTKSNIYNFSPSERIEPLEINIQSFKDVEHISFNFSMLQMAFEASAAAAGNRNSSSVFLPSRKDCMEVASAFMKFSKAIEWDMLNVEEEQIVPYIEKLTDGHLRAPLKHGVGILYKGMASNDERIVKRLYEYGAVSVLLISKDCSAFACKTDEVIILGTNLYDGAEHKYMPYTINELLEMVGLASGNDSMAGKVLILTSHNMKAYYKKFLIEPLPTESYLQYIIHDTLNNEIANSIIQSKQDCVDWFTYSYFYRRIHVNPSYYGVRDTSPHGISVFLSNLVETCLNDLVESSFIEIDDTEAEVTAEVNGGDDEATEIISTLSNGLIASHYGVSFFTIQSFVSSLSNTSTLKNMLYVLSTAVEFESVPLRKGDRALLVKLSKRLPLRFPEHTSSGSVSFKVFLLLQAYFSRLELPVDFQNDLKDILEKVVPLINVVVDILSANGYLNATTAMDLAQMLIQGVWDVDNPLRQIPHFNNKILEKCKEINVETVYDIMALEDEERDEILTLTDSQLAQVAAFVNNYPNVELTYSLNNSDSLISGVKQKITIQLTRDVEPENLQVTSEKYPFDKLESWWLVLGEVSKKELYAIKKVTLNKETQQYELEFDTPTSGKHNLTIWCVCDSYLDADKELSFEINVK

Sequence of Pre-mRNA-splicing factor 8 (Saccharomyces cerevisiae), P33334 R2388K (P33334 whole entry R2388K): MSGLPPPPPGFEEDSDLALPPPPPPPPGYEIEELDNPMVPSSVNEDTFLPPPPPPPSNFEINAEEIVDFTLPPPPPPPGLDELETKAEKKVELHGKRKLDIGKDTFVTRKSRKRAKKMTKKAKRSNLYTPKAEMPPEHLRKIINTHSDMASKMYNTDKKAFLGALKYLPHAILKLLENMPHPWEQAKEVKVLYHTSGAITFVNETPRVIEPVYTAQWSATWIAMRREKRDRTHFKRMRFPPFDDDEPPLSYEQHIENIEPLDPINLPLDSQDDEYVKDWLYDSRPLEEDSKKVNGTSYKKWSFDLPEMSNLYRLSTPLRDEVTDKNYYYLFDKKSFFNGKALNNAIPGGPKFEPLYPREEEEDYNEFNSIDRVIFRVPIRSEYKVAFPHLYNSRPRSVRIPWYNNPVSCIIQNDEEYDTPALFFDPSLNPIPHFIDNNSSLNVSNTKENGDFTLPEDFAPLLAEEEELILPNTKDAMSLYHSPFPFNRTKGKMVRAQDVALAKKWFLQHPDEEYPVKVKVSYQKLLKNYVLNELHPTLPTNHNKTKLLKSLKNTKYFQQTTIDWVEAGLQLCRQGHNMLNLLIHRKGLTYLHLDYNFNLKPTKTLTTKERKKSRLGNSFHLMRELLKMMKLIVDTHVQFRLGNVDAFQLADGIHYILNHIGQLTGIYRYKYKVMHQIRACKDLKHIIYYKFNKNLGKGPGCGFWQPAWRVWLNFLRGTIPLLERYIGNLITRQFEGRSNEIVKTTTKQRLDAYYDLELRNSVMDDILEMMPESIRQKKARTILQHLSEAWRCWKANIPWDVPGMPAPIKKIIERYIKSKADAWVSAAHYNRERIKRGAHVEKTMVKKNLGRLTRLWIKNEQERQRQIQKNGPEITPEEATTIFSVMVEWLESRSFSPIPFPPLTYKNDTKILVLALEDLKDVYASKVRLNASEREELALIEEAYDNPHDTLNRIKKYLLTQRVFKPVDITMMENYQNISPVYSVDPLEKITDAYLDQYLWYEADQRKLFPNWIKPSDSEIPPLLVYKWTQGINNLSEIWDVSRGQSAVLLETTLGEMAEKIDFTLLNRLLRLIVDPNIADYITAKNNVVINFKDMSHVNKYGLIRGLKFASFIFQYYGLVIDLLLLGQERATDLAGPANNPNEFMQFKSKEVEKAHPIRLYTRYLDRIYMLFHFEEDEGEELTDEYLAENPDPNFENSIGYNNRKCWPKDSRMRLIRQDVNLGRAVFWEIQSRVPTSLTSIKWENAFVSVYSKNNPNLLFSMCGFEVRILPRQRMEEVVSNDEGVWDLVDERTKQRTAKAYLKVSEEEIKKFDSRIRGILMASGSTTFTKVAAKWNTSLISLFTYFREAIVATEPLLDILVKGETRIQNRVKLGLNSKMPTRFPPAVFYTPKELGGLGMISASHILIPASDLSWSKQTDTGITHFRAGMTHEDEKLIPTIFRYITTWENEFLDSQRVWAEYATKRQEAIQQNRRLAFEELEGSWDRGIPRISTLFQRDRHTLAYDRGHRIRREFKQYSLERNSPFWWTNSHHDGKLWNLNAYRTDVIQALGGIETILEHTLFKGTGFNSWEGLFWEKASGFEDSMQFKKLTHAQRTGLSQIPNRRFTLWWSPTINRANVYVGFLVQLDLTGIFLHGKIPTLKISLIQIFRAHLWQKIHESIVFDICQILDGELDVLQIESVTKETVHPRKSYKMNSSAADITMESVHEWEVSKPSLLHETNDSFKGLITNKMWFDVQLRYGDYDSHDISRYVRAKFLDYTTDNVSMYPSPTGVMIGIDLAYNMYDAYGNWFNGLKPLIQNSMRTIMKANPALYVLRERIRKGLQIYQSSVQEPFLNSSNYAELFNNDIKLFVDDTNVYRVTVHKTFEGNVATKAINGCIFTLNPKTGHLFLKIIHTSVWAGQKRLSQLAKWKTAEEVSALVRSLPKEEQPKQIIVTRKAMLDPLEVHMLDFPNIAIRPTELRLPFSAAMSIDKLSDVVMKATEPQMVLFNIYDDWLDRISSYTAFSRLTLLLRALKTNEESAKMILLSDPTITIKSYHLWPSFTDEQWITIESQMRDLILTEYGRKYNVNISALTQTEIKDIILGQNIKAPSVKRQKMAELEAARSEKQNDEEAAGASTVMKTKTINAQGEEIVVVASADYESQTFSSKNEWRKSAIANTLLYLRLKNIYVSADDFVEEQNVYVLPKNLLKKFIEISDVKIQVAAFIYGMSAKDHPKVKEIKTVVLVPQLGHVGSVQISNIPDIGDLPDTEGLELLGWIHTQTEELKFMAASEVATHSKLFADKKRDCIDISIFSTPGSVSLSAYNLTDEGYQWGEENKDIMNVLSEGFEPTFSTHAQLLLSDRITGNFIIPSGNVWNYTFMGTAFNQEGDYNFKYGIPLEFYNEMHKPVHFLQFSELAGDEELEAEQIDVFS

Effect of a mutation on the interaction, disrupting interaction strength:
Pre-mRNA-splicing factor 8 (Saccharomyces cerevisiae), P33334 R2388G
Pre-mRNA-splicing factor 8 (Saccharomyces cerevisiae), P33334 H2387R
Pre-mRNA-splicing factor 8 (Saccharomyces cerevisiae), P33334 H2387P
Pre-mRNA-splicing factor 8 (Saccharomyces cerevisiae), P33334 R2388K
